Test [1] in a line: Induction of apoptosis by Nur77 peptides, cell line not stated. The class given is cell-based. The method, then:
Apoptosis assays—For nuclear morphological change analysis, cells were trypsinized, washed with PBS, fixed with 3.7% paraformaldehyde, and stained with DAPI (4,6-diamidino-2-phenylindole) (50 μg/ml) to visualize the nuclei by UV-microscopy. The percentages of apoptotic cells were determined by counting 300 GFP-positive cells, scoring cells having nuclear fragmentation and/or chromatin condensation.

For test [2], the target named is T1, Bcl-B (Homo sapiens, UniProt Q9HD36).
T1 construct: expressed in transfected cells; host or cells: HEK293T
T1 sequence (Q9HD36 1-204): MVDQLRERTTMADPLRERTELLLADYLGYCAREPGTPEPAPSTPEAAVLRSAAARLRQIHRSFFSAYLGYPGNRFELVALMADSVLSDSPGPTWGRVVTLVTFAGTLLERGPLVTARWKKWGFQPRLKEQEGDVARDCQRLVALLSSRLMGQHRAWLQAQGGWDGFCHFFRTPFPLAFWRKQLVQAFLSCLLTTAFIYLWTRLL
The test is described as follows: Co-immunoprecipitation with myc-tagged Bcl-B in HEK293T cells. The class given is binding. Here is the method: (§1) Nur77 peptide binds anti-apoptotic Bcl-2 family members. Nur77-peptide binds Bcl-B, Bfl-1, and Bcl-2, but not Mcl-1 and Bcl-xL. […] The expression vector for the GFP-Nur77/489-497 fusion was transfected into HEK293T cells together with or without the indicated expression vector for myc-tagged Bcl-2 family member. Cell lysates were prepared and analyzed for interaction of Nur77/489-497 with Bcl-2 family members by co-immunoprecipitation assay using anti-Myc antibody. Immunoprecipitates were then separated on SDS/PAGE and immunoblotted using anti-GFP antibody. […] Nur77/Bcl-2 interaction assays—Reporter gene assays using NurRE-tk-CAT in CV-1 cells, and GST pull-down assay were described previously (Li, et al. 2000 Science 289:1159-1164). For the mammalian two-hybrid assays, CV-1 cells were co-transfected with pcDNA-Gal4TAD-Nur77 or pcDNA-Gal4TAD-Nur77/ΔDBD and pcDNA-Gal4 DBD-Bcl-2/ΔTM along with a luciferase reporter gene driven by four copies of the Gal-4-binding site. The cells were harvested and reporter gene activity was measured. […] Immunoreactive products were detected by chemiluminescence with an enhanced chemiluminescence system (ECL) (Amersham).

Test [3] addresses T2, Bfl-1 (Homo sapiens, UniProt Q16548).
T2 construct: expressed in transfected cells; host or cells: HEK293T
T2 sequence (Q16548 1-175): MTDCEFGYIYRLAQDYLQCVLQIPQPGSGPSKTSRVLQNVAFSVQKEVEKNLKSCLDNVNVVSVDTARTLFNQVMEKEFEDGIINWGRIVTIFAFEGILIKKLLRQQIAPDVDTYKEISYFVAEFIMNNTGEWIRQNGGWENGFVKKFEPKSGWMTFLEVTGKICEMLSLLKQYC
The test is described as follows: Co-immunoprecipitation with myc-tagged Bfl-1 in HEK293T cells. The class given is binding. The method, then:
as §1

Test [4] concerns the target Bcl-XL (Homo sapiens, UniProt Q07817). The test is described as follows: Co-immunoprecipitation with myc-tagged Bcl-XL in HEK293T cells. Type of test: binding. The method, then: as §1
In test [5] the target is Mcl-1 (Homo sapiens, UniProt Q07820). The test is described as follows: Co-immunoprecipitation with myc-tagged Mcl-1 in HEK293T cells. Type of test: binding. The method, then:
as §1

For test [6], the system named is mitochondria. The test is described as follows: Subcellular localization, colocalization with RFP-Mito. The class given is cell-based. Here is the method: Subcellular localization assays—Cells were seeded onto cover-slips in 6-well plates overnight, then transiently transfected with GFP-fusion expression plasmids. After 16 hours, cells were washed with PBS and fixed in 4% paraformaldehyde. […] For cyt c staining, cells were incubated with monoclonal anti-cyt c IgG (PharMingen), followed by anti-mouse IgG conjugated with Cy5 (Amersham). Fluorescent images were collected and analyzed using a MRC-1024 MP laser-scanning confocal microscope (Bio-Rad). Subcellular fractionation assays were performed as described (Li, et al. 2000 Science 289:1159-1164). Briefly, cells (1×10^7 cells) suspended in 0.5 ml hypotonic buffer (5 mM Tris-HCl, pH 7.4, 5 mM KCl, 1.5 mM MgCl2, 0.1 mM EGTA, pH 8.0, and 1 mM DTT) were homogenized and cell extracts were centrifuged at 500×g for 5 min. The resulting supernatant was centrifuged at 10,000×g for 30 min at 4° C. to obtain the HM fraction. HM fraction was resuspended in 100 μl lysis buffer (10 mM Tris, pH 7.4, 150 mM NaCl, 1% Triton X-100, 5 mM EDTA, pH 8.0) for immunoblotting analysis.

For test [7], the target named is Bcl-2 (Homo sapiens, UniProt P10415). The test is described as follows: Co-immunoprecipitation with Bcl-2 in HEK293T cells. The class given is binding. Further details: expressed in transfected cells; host or cells: HEK293T. The method, then:
as §1, with “measured. For Co-IP assays, HEK293T cells were transiently transfected with various expression plasmids using a modified calcium phosphate precipitation method (Wu et al, 1997) in the presence of caspase inhibitors (zVAD-fmk) to prevent degradation of Nur77 protein due to apoptosis. Cells were suspended in lysis buffer (50 mM Tris-HCl, PH7.4; 150 mM NaCl; 20 mM EDTA; 1% NP-40; 1 mM PMSF; 50 μg/ml Leupeptin; […]; 0.1 mM Na3VO4; and 1 mM DTT). Cells extracts were cleared by incubation with the Protein A/G plus Agarose beads (Santa Cruz) and then incubated with appropriate antibody and 30 μl of Protein A or G plus Agarose beads overnight at 4° C.” for “measured.”

“Also recorded” adds a separate entry of the source. Where no end group is shown, it is not given here.

Bcl-2, sequence (P10415 whole entry): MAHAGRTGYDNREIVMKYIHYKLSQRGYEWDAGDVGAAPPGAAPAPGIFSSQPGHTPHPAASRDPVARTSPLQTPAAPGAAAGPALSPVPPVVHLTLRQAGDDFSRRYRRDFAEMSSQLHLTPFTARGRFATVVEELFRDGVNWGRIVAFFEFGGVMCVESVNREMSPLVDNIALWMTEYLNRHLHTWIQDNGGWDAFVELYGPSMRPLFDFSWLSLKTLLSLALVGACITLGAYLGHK
Mcl-1, sequence (Q07820 whole entry, species assumed): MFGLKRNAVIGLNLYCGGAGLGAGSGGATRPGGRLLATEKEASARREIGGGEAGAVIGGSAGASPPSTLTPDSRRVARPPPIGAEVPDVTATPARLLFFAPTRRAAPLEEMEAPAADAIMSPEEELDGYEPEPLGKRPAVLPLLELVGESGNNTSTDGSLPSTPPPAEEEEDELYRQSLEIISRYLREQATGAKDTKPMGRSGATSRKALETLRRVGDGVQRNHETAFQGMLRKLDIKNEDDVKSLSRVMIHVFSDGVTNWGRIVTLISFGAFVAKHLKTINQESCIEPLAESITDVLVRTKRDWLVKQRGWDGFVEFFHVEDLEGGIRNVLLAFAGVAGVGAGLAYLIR
Bcl-XL, sequence (Q07817 whole entry, species assumed): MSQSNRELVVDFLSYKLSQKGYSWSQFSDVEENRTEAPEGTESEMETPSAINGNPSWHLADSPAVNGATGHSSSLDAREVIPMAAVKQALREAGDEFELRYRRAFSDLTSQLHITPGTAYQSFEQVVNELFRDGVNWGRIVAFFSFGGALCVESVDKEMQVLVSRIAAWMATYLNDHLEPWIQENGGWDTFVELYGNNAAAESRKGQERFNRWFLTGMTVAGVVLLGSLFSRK

As to “GFP-Nur77/489-497: NuBCP-9 (Nur77/489-497) sequence cloned as a green fluorescence protein (GFP) fusion (FSRSLHSLL; also: fused to GFP)”, the induction of apoptosis entry in test [1] is listed as “apoptotic”. Besides, in test [2], the “interaction with Bcl-B by co-immunoprecipitation” value is recorded as “interacts”. Further, the “interaction with Bfl-1 by co-immunoprecipitation” value in test [3] is recorded as “interacts”. Besides, the “interaction with Bcl-XL by co-immunoprecipitation” value in test [4] is “not”. In test [5], the “interaction with Mcl-1 by co-immunoprecipitation” value is listed as “not”. Moreover, the “colocalization with RFP-Mito” value in test [6] is on record as “colocalized extensively”. The “interaction with Bcl-2 by co-immunoprecipitation” value in test [7] is reported as “precipitated by anti-Bcl-2 antibody only when Bcl-2 was co-expressed; also recorded: interacts”.

Values taken from patent US7745574B2, “Compounds that regulate apoptosis” (The Burnham Institute, priority 2005, dated 2010).
